According to the supplement of paper PMC10126150:
± gives the standard deviation of the averaged measurements.

System: ATP
Experiment: switch fluorescence ratio, 500 uM ATP over buffer (Cy3 cluster intensity, sum of 5 cycles each) (fold (ratio)); higher = stronger signal-on switching upon ATP binding; sequences stand for … in TCGTCGGCAGCGTCAGATGTGTATAAGAGACAGTTTTTTTTTTTTTTTTTTTTTTTTT…TC
Conditions: aptamer strand: ATP DNA aptamer (quencher-CACCTGGGGGAGTATTGCGGAGGAAGG + anchor), 100 nM annealed; ATP concentration: 500 uM
Method in brief: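 Cy3-labelled switching-strand clusters on a modified Illumina MiSeq flow-cell were annealed to 100 nM quencher-labelled ATP aptamer, imaged in selection buffer, then imaged after 15 min with 500 uM ATP at 22 °C. Five buffer/ATP cycles ran, with NaOH stripping and re-annealing between them. The fluorescence ratio is summed target-cycle over summed buffer-cycle Cy3 intensity per cluster, averaged per switch-domain sequence. Clusters outside 100-1000 RFU were excluded.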
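Further: ATP exposure 15 min at 22 °C before imaging.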

Sequence | switch fluorescence ratio
ACATCGGGAT | 1.017 ± 0.0012
ACTTTTTTGA | 1.005 ± 0.0056
CATAGGGTTT | 1.04 ± 0.047
GATTTCTGCT | 0.974 ± 0.021
AATGGGTTGG | 0.9875 ± 0.0082
AGATGATGGG | 0.99 ± 0.017
GTTGGGGGCG | 0.991 ± 0.052
AGCGGAGGGG | 1.04 ± 0.033
TGATGGGCAG | 1.01 ± 0.047
GGTTGCATCA | 0.994 ± 0.032
GACCTTGACG | 1.02 ± 0.022
GGGAATTACC | 0.986 ± 0.024
AAAAAAGTTA | 1 ± 0.064
AATTTCTGGG | 1.06 ± 0.058
TTCGTAGTGG | 1 ± 0.013
TCAGGTGTTT | 1.56 ± 0.51
TAGATAGAAC | 0.976 ± 0.054
TTTATTTGTT | 1 ± 0.021
TTTTGGGTGT | 1.02 ± 0.059
GGGTTTCGAT | 0.984 ± 0.024
TAAGGAAAGT | 0.991 ± 0.027
AGTCGTTGGA | 0.96555 ± 0.00011
CATGTAATTT | 0.966 ± 0.034

Sequence | switch fluorescence ratio
AGACGGAATT | 1.049 ± 0.0063
TCAAGAAATC | 0.983 ± 0.091
GGACTAGTTA | 0.99 ± 0.021
ATTTGTAAGT | 0.9587 ± 0.006
GGGTGTTGCT | 1 ± 0.017
CTTTGGGCAA | 1.46 ± 0.089
TCTGGGGTTT | 1.03 ± 0.051
TCGTGTTTTT | 1.01 ± 0.013
ACAGGAGGGG | 1.04 ± 0.018
TGTTTGGTTG | 1.01 ± 0.017
AACGCGGCTG | 0.9967 ± 0.0046
AGACTGTCGA | 1 ± 0.012
GGTTACATTG | 0.993 ± 0.019
AACGGCGGGG | 1 ± 0.017
ATGCTTGCTG | 0.9819 ± 0.0052
AGTTGGGGTG | 0.989 ± 0.034
AGTCGGTAGG | 1.02 ± 0.012
AATCTAACGT | 0.9937 ± 0.008
CATGGTGGCG | 1.01 ± 0.022
CTTGATATTG | 0.999 ± 0.018
AGGCAGAACG | 1.048 ± 0.0058
TTTTTTGCGG | 1.08 ± 0.22
ATAATGATGT | 0.97 ± 0.026

Sequence | switch fluorescence ratio
GCGGCTTGGG | 1.03 ± 0.055
CAGTCTGTGT | 0.9921 ± 0.0075
GATATCACTG | 1.02 ± 0.016
GAGTTCATAG | 1 ± 0.013
TATTTTATAT | 0.943 ± 0.021
TTTAGTTTTG | 1.017 ± 0.005
TGGTTTTCTT | 0.992 ± 0.03
CTTATTGAGC | 1.01 ± 0.012
TATTTTTTGT | 1.01 ± 0.021
AAGAGGAAAA | 1 ± 0.024
AGGGGTATGC | 0.979 ± 0.033
AAGGTGTCGA | 0.967 ± 0.019
ATGGCTATTC | 0.979 ± 0.046
GGGCTAAATC | 1.01 ± 0.06
AGGGGTTATA | 1.01 ± 0.024
ATGCAGGGCT | 0.962 ± 0.041
AAAAGTGGGA | 1.03 ± 0.031
TTTTCCTGAT | 1 ± 0.017
GGGTGTACGG | 1.04 ± 0.024
CGTACTTCCG | 1.019 ± 0.0053
TGAGCTTTTT | 0.993 ± 0.03
AAGTTGGGAG | 1 ± 0.019
GAACTTGGG | 1.01 ± 0.045

Sequence | switch fluorescence ratio
AATCGGGGGT | 1.002 ± 0.0097
TTGAAAAATT | 1.03 ± 0.016
AAGGGCTATT | 1 ± 0.029
TTTTGCGCGC | 0.994 ± 0.029
GCACGGGAGG | 1.01 ± 0.032
CGCAGGGGGC | 1.14 ± 0.059
GGGTATTATA | 0.996 ± 0.03
CTAAAGAGCA | 1.03 ± 0.073
GGCTCTAGGG | 0.9921 ± 0.0036
GAACTAAATG | 1 ± 0.055
TGGCGTTGGT | 0.994 ± 0.056
CATTTAGGGC | 1.02 ± 0.054
CGAAGATCGA | 0.982 ± 0.042
AAAACTTATG | 1.026 ± 0.0033
TACACTTTGC | 1.027 ± 0.0079
AAGCAATTAT | 1.53 ± 0.11
GACTGGCTGG | 1 ± 0.03
GATCAGAGGT | 1 ± 0.029
GTTGGATTAA | 1 ± 0.046
CATGTGTTGC | 0.987 ± 0.012
GTTGTGCTTT | 0.984 ± 0.011
TAACAGTGGG | 1.02 ± 0.046
CGCTGGGTTT | 0.976 ± 0.035

Sequence | switch fluorescence ratio
AAGTAGGGGC | 1.02 ± 0.015
GGCTGGGAGG | 0.99 ± 0.014
GCAGGGGGGG | 1.05 ± 0.054
CAGAACAGCT | 1.029 ± 0.0039
ATGTTCGAGA | 0.9855 ± 0.0066
ACTTACTTT | 1.16 ± 0.021
AATGGCCGCG | 1.08 ± 0.11
GGGGTGATGG | 1.02 ± 0.02
CACGGGGGGG | 1.02 ± 0.025
CTCGACAGGG | 0.991 ± 0.019
GACGCATATG | 2.03 ± 0.098
TTAAAAGCGA | 0.974 ± 0.023
GGAGCATGGG | 1.19 ± 0.04
CGTTTGAATA | 0.974 ± 0.052
TGGGGCGGGA | 1.02 ± 0.08
GGTGTAGGAC | 1.03 ± 0.012
CTTTGGTATA | 0.977 ± 0.0051
TAGCGGGTTC | 1.055 ± 0.0048
GGTGGTAGTT | 1.012 ± 0.003
ATATCAGGGC | 0.961 ± 0.034
CGGGCAGGTA | 1.044 ± 0.0039
CGTCTTAGTT | 0.993 ± 0.015
AACGACGGGG | 1.01 ± 0.033

Sequence | switch fluorescence ratio
GAGAAGGATT | 0.99 ± 0.046
TAGGGGGTTT | 0.99 ± 0.032
GTTTCATATC | 1.02 ± 0.047
GGCAGGGGGT | 1.04 ± 0.088
CTATGATATT | 0.947 ± 0.042
CGAGATTTGT | 1.011 ± 0.0097
TTTCTTGGGG | 0.979 ± 0.018
TAGGATTATA | 0.964 ± 0.021
CGAGTTGGTA | 1.01 ± 0.025
CGCTTTTTTG | 1.01 ± 0.032
GGGGTTGGGC | 1 ± 0.028
AATGTGAATG | 0.992 ± 0.021
TTTTGTATAA | 1.02 ± 0.02
GGAAAAACGT | 0.998 ± 0.015
GAAGTATCGG | 0.979 ± 0.024
TTTCGTGGTG | 0.997 ± 0.031
TGTGGGGTGG | 0.999 ± 0.025
CAGGGTTAGG | 1.01 ± 0.026
CATTTTCCGC | 1.81 ± 0.57
GGGCTAGCCA | 0.979 ± 0.011
AGATTGTGGT | 0.99 ± 0.018
CATTTAGCTG | 0.9875 ± 0.0055
TGAGTTAAAG | 0.9876 ± 0.0082

Sequence | switch fluorescence ratio
CTTCCTATTG | 1.08 ± 0.046
GAGTCACGTC | 0.9468 ± 0.0088
AGTGGGGGGC | 0.998 ± 0.02
GGAAACGGGT | 1.02 ± 0.014
AGGGTACCTG | 1.01 ± 0.015
TTTGTAGGGG | 0.981 ± 0.016
TAGAACGTCG | 0.98 ± 0.031
TATTTAGGGA | 0.987 ± 0.022
ATGTTGTAAC | 0.985 ± 0.01
GACGTAGTTT | 1.014 ± 0.0021
GACTAGGTTT | 1.04 ± 0.013
AATAGGTTGG | 0.994 ± 0.029
TTTTGCTCGT | 1.14 ± 0.2
TTGCTCTTGG | 0.956 ± 0.0095
AATGTCGGGC | 1.02 ± 0.022
TCCGGATCGG | 1.03 ± 0.012
ATTGAAGCGG | 1.01 ± 0.05
TTGTAAAA | 0.95579 ± 0.00088
ATGTATTTTT | 1 ± 0.031
